Common to all, as to details: tags: NLS, 6xHis
The target in data set [1] is T1, LIG3-4(B82) (artificial).
T1 chain: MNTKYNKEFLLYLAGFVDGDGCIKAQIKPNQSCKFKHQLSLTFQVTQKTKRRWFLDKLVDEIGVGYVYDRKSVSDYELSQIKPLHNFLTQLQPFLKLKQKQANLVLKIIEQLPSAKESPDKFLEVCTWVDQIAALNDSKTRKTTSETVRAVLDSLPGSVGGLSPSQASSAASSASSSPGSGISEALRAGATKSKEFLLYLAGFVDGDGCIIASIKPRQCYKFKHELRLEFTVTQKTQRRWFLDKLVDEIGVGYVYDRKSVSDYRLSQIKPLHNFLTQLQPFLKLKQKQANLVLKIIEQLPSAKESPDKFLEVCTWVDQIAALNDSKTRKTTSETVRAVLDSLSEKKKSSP
The data set is described as follows: cell_activity; yeast 30 C; 22 C: 4. As for the experimental part:
(§1) A 3 mL culture of selective media (MP Biomedical) was inoculated with a single colony of the yeast screening strain and grown at 30° C. overnight. On the following day, a 50 ml YPD culture (MP Biomedical) was started with 2 ml of the overnight culture and grown at 30° C. overnight. On the following day, the cells were harvested by centrifugation at 4000 rpm. The cells were resuspended in 100 ml ice cold water and centrifuged again. The cells were then washed in 1.2 M sorbitol, followed by treatment with 2 ml of 10 mM Tris pH 8.0, 1 mM EDTA, 100 mM Lithium acetate, 10 mM DTT, 0.6M sorbitol for 30 minutes at 30° C. with shaking. The cells were recovered by centrifugation, washed in 40 ml 1.2M sorbitol and finally resuspended in 250 microliters of 1.2M sorbitol. 50 microliter aliquots were transferred to test tubes on ice. Up to 5 microliters of DNA (100-500 nanograms) were added. The suspension was transferred to a 0.2 cm electroporation cuvette, on ice. Electroporation was performed with a pulse charge at 1.5 kV, 200 ohms, 25 microF (pulse time of 5 milliseconds). 1 mL YPD media (MP Biomedical) was added and the cells were allowed to recover at 30° C. for 1-2 hr. The cells were centrifuged, resuspended in 100 uL 1M sorbitol and plated on selective media lacking leucine and containing 2% galactose. The resulting yeast colonies were incubated at various temperatures ranging from 22 to 37 degrees Celsius for 7-10 days. I-CreI and meganucleases derived from it have maximal activity at or above 37 degrees Celsius. Screening was performed at a range of temperatures from 22 to 37 degrees in order to observe increases in activity at lower temperatures which are relevant to certain biological systems (eg. plant cells, plant cell cultures, etc). At that time the red/white sectoring phenotype, indicative of meganuclease activity was observed. Colonies with increased white sectoring over the parental meganuclease (indicating colonies expressing a meganuclease with increased meganuclease activity), also referred to as “hits” and sometimes completely white, were isolated for further analysis.

In data set [2] the target is T2, LIG3-4(B78) (artificial).
T2 chain: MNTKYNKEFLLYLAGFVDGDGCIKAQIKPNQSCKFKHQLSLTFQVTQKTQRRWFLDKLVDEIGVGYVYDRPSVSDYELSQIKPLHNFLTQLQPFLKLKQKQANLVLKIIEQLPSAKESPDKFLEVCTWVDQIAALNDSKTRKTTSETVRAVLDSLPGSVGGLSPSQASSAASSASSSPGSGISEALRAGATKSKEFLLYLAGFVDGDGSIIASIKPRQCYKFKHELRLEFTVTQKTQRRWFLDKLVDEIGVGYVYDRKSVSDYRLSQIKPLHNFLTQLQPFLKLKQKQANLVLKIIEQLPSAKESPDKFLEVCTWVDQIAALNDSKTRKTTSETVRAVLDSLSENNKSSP
The experiment in a line: cell_activity; yeast 30 C; 22 C: 4. As for the experimental part: as §1

Data set [3] has as its target T3, ZM6.3(G3) (artificial).
T3 chain: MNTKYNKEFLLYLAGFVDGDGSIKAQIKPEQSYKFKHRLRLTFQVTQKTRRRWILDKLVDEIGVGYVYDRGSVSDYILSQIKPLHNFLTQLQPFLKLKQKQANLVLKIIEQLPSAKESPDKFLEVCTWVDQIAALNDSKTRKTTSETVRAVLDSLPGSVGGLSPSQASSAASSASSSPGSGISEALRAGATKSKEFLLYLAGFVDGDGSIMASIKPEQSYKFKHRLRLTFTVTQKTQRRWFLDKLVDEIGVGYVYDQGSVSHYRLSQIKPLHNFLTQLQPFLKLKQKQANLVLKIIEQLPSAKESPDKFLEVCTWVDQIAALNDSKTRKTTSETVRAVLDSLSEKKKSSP
The data set is described as follows: cell_activity; yeast 37 C; 28 C: 2. As for the experimental part:
as §1
(§2) A total of 15 Zm6.3 variants with increased activity were confirmed in the yeast system (as described in Example 6). Increased activity was observed across a range of temperatures: 28 degrees Celsius, 30 degrees Celsius and 37 degrees Celsius, as shown in Table 15.

Data set [4] deals with T4, ZM6.3(H3) (artificial).
T4 chain: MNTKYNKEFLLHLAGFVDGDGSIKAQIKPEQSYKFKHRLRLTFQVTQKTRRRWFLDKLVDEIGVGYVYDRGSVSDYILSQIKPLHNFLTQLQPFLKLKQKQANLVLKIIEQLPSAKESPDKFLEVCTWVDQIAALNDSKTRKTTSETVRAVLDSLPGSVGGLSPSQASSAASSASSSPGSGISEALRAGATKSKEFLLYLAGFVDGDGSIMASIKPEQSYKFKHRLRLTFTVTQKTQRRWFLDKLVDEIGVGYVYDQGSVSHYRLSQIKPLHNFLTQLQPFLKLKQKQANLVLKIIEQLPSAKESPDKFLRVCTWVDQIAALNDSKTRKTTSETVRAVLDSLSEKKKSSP
The data set is described as follows: cell_activity; yeast 37 C; 28 C: 2. As for the experimental part:
as §1, §2

Data set [5] concerns the target T5, ZM6.3(H2) (artificial).
T5 chain: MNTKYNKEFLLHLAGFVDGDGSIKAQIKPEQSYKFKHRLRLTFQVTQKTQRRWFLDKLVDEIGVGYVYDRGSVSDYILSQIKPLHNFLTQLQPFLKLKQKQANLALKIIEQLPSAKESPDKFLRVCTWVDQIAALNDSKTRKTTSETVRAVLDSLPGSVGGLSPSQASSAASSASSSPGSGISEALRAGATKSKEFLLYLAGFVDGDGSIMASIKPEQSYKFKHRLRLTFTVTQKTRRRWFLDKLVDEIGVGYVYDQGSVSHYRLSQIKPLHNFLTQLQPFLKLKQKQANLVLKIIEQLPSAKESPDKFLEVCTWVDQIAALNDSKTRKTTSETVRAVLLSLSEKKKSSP
The experiment in a line: cell_activity; yeast 37 C; 28 C: 2. As for the experimental part: as §1, §2

B1: LIG3-4 recognition site (dsDNA)
DNA 1: ATATACCTCACACGTACGCGTA
DNA 2: TACGCGTACGTGTGAGGTATAT
With B1, the activity in data set [1] and in data set [2] was 4 score 0-4 each time.

B2: ZM6.3 recognition site (dsDNA)
DNA 1: CAGGCTCTCGTAAATGCGCCTG
DNA 2: CAGGCGCATTTACGAGAGCCTG
On to B2, for which the activity in data set [3], in data set [4] and in data set [5] was 4 score 0-4 throughout.

These data come from US20140223606, “COMPOSITIONS AND METHODS COMPRISING SEQUENCES HAVING MEGANUCLEASE ACTIVITY” (PIONEER HI BRED INTERNATIONAL INC, published 2014).
